The results in this text go back to PMC11189301, “Structure of the human outer kinetochore KMN network complex” (Nature Structural & Molecular Biology, 2024).

The target of assay [1] is T1, MIS12 complex (Mis12, Pmf1, Dsn1, Nsl1), wild type, full length (Homo sapiens, UniProt Q9H081 1-205; Q6P1K2 1-205; Q9H410 1-356; Q96IY1 1-281).
T1 construct: Mis12, subunit of human MIS12C; Pmf1, subunit of human MIS12C; Dsn1, subunit of human MIS12C; Nsl1, subunit of human MIS12C; The DS tag on Pmf1 is TEV cleavable; a cleavage is not described; also called MIS12C (WT); wild-type MIS12C; source: High-5 insect cells (baculovirus), purified (Strep-Tactin, Resource S, Superdex 200); copies: + + +
T1 sequence (looked up) 1: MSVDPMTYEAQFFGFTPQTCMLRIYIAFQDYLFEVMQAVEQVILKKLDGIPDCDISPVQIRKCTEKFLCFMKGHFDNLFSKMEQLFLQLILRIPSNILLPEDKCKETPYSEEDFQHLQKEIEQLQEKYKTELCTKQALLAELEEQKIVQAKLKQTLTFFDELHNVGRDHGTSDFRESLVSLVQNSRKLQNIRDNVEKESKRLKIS
T1 sequence (looked up) 2: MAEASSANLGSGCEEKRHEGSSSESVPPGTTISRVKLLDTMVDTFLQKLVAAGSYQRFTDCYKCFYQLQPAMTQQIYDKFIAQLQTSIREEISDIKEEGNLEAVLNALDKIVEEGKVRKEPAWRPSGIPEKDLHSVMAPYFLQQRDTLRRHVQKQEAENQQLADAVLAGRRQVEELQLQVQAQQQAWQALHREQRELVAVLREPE
T1 sequence (looked up) 3: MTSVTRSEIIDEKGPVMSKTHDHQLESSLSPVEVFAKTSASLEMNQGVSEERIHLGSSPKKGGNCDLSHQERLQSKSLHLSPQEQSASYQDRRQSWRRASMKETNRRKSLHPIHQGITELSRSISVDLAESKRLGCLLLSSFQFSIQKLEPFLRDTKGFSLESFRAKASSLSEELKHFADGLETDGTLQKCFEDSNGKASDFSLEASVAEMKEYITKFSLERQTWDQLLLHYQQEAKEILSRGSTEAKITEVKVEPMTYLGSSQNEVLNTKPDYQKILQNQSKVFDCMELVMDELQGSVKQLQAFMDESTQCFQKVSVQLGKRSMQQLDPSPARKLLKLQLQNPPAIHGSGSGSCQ
T1 sequence (looked up) 4: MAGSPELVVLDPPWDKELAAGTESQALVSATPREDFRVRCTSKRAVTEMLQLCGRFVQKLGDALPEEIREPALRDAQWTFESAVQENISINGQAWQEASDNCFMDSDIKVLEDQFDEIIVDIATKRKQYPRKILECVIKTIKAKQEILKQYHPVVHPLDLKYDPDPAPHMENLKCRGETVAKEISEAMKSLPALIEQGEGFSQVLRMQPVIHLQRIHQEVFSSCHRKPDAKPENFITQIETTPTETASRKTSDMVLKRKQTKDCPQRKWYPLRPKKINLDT
In words: SEC; MIS12C or MIS12C^Nsl1ΔC mixed with Knl1 2131–2337 or its mutants at 4 µM each; 20 mM HEPES pH 7.8, 150 mM NaCl, 0.5 mM TCEP; Superose 6; fractions on SDS-PAGE. As to conditions: both partners purified. On the technique in general: SEC sorts molecules by how far they enter the pores of the column.

In assay [2] the target is T2, MIS12 complex with Nsl1 truncated at the C terminus (Nsl1 1–264; residues 265–281 deleted) (Homo sapiens, UniProt Q9H081 1-205; Q6P1K2 1-205; Q9H410 1-356; Q96IY1 1-264).
T2 construct: Mis12, subunit of human MIS12C; Pmf1, subunit of human MIS12C; Dsn1, subunit of human MIS12C; Nsl1, subunit of human MIS12C, residues 1-264; also called MIS12C^Nsl1ΔC; Nsl^1–264; source: High-5 insect cells (baculovirus), purified (Strep-Tactin, Resource S, Superdex 200); copies: + + +
T2 sequence (looked up) 1: T1 sequence (looked up) 1
T2 sequence (looked up) 2: T1 sequence (looked up) 2
T2 sequence (looked up) 3: T1 sequence (looked up) 3
T2 sequence (looked up) 4: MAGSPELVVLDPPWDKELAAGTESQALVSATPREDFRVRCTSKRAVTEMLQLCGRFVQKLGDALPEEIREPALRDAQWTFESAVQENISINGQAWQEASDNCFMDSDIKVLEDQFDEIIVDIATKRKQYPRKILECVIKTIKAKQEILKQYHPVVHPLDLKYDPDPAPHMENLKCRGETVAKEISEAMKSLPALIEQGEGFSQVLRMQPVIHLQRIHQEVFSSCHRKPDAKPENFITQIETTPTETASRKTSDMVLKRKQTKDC
The assay is described as above. To be noted: both partners purified.

Assay [3] concerns the target T1, MIS12 complex (Mis12, Pmf1, Dsn1, …). Put plainly: cryo-EM structure; NDC80C, MIS12C and KNL1C mixed 1:1:1 and run on Superose 6 in 20 mM HEPES pH 8.0, 80 mM NaCl, 1 mM MgCl2, 1 mM TCEP; about 1 mg/ml on UltrAuFoil grids; 3.0 Å (MIS12C heads 3.8 Å). As to conditions: both partners purified.
The next assay concerns the target T3, Mis12 (Homo sapiens, UniProt Q9H081 1-205).
T3 construct: Mis12, subunit of human MIS12C; Subunit within the KMN network cryo-EM sample; source: High-5 insect cells, expressed and purified as part of MIS12C
T3 sequence (looked up): T1 sequence (looked up) 1
The assay is described as above. To be noted: both partners purified.

The target in the next assay is T4, Dsn1 (Homo sapiens, UniProt Q9H410 1-356).
T4 construct: Dsn1, subunit of human MIS12C; Subunit within the KMN network cryo-EM sample; residues N-terminal to Arg92 are disordered; source: High-5 insect cells, expressed and purified as part of MIS12C
T4 sequence (looked up): T1 sequence (looked up) 3
The description is as above. To be noted: both partners purified.

A further assay addresses T5, Knl1 residues 1870–2342 (human, UniProt Q8NG31 1870-2342).
T5 construct: Knl1, human, 2,342-residue protein, residues 1870-2342; coordinates traced R2097–H2342; Subunit within the KMN network cryo-EM sample; also called extended version of the Knl1 C terminus; source: High-5 insect cells, expressed and purified as part of KNL1C
T5 sequence (looked up): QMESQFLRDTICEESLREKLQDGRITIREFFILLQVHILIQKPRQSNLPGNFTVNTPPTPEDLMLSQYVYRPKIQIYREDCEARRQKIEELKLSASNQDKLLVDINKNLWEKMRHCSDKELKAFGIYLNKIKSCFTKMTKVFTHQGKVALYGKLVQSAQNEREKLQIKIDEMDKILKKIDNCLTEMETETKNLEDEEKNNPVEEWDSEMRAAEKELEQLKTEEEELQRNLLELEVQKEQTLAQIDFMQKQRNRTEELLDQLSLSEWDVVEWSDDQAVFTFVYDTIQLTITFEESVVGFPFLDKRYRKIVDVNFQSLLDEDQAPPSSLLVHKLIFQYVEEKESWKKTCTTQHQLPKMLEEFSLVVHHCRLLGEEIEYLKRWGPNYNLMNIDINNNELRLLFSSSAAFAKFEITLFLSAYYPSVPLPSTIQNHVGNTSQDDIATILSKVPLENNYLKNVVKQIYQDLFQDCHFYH
Described as above. To be noted: both partners purified.

Assay [4] concerns the target MIS12 complex with Dsn1 residues 6–113 deleted (Homo sapiens, UniProt Q9H081 1-205; Q6P1K2 1-205; Q9H410 1-356; Q96IY1 1-281, 6–113 residues deleted). Put plainly: ITC. In general terms: ITC needs no label: the signal is the heat of the interaction.
Assay [5] deals with T6, MIS12 complex (Mis12, Pmf1, Dsn1, Nsl1), wild type, full length (Homo sapiens, UniProt Q9H081 1-205; Q6P1K2 1-205; Q9H410 1-356; Q96IY1 1-281).
T6 chain 1: T1 sequence (looked up) 1
T6 chain 2: T1 sequence (looked up) 2
T6 chain 3: T1 sequence (looked up) 3
T6 chain 4: T1 sequence (looked up) 4
Put plainly: ITC.

In assay [6] the target is T7, MIS12 complex with Dsn1 residues 6–113 deleted (Homo sapiens, UniProt Q9H081 1-205; Q6P1K2 1-205; Q9H410 1-356; Q96IY1 1-281, 6–113 residues deleted).
T7 construct: Mis12, subunit of human MIS12C; Pmf1, subunit of human MIS12C; Nsl1, subunit of human MIS12C; also called MIS12C^Dsn1ΔN; MIS12C^ΔN-Dsn1; source: High-5 insect cells (baculovirus), purified (Strep-Tactin, Resource S, Superdex 200); copies: + + +
T7 sequence (looked up) 1: T1 sequence (looked up) 1
T7 sequence (looked up) 2: T1 sequence (looked up) 2
T7 sequence (looked up) 3: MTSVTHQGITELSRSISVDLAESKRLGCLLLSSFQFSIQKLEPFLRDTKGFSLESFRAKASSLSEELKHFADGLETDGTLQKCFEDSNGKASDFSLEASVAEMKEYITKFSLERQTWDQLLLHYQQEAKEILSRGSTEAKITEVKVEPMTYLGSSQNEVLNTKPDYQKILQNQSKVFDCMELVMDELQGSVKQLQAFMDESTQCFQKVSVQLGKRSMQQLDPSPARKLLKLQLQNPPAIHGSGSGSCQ
T7 sequence (looked up) 4: T1 sequence (looked up) 4
In words: ITC; peptide in the syringe titrated into the MIS12C variant in the cell; 20 °C; 20 mM HEPES pH 7.5, 100 mM NaCl, 1 mM TCEP; single-site binding model; duplicate or triplicate. To be noted: both partners purified.

In assay [7] the target is T1, MIS12 complex (Mis12, Pmf1, Dsn1, …). Described as above. As to conditions: both partners purified.

B1: Knl1 RWD domains, residues 2131–2337, wild type (domain or fragment, H. sapiens, UniProt Q8NG31 2131-2337, looked up)
chain: SLSEWDVVEWSDDQAVFTFVYDTIQLTITFEESVVGFPFLDKRYRKIVDVNFQSLLDEDQAPPSSLLVHKLIFQYVEEKESWKKTCTTQHQLPKMLEEFSLVVHHCRLLGEEIEYLKRWGPNYNLMNIDINNNELRLLFSSSAAFAKFEITLFLSAYYPSVPLPSTIQNHVGNTSQDDIATILSKVPLENNYLKNVVKQIYQDLFQD
notes: Knl1, human, residues 2131-2337 (tandem RWD domains); also called Knl1^2131–2337; wild-type KNL1; source: E. coli BL21 (DE3), purified (Ni-NTA, reverse IMAC, Superdex 75); not shown: His6, N-terminal, cleaved
B1: the binding result in assay [1] and in assay [2] was “binds” throughout.

B2: KNL1 complex (Knl1 residues 1870–2342 with ZWINT) (complex, human)
chain 1: T5 sequence (looked up)
chain 2: MEAAETEAEAAALEVLAEVAGILEPVGLQEEAELPAKILVEFVVDSQKKDKLLCSQLQVADFLQNILAQEDTAKGLDPLASEDTSRQKAIAAKEQWKELKATYREHVEAIKIGLTKALTQMEEAQRKRTQLREAFEQLQAKKQMAMEKRRAVQNQWQLQQEKHLQHLAEVSAEVRERKTGTQQELDRVFQKLGNLKQQAEQERDKLQRYQTFLQLLYTLQGKLLFPEAEAEAENLPDDKPQQPTRPQEQSTGDTMGRDPGVSFKAVGLQPAGDVNLP
notes: Knl1, human, 2,342-residue protein, residues 1870-2342; ZWINT, human, constitutive partner of Knl1; Amplified from cDNA; also called Knl1–ZWINT; source: High-5 insect cells (baculovirus), purified (His-tag column, Resource Q)
In the case of B2, in assay [3], the binding result is given as “binds”.

B3: Pmf1 (natural protein, Homo sapiens, UniProt Q6P1K2 1-205, looked up)
chain: T1 sequence (looked up) 2
notes: Pmf1, subunit of human MIS12C; Subunit within the KMN network cryo-EM sample; source: High-5 insect cells, expressed and purified as part of MIS12C
Regarding B3, the binding result with Mis12, with Dsn1 and in the assay with Knl1 residues 1870–2342 was “binds” in each case.

B4: Dsn1^92–113 auto-inhibitory peptide, wild type (peptide)
peptide: Ac-RRQSWRRASMKETNRRKSLHPIAW-NH2
notes: Ala-Trp added for determination of concentration by absorption at 280 nm; source: synthetic peptide (Cambridge Research Biochemicals)
On to B4, for which the Kd in [4] is 4.89 µM; in assay [5] it was 214 µM. For the same molecule, the “fold increase in binding against wild-type MIS12C” value in assay [6] was 44 fold. The binding result in assay [7] is on record as “binds”.

What is called Kd is the concentration at which binding is half-saturated.
